According to paper PMC5120204, “Identification of an orally active small-molecule PTHR1 agonist for the treatment of hypoparathyroidism” (Nature Communications, 2016):
Like-named read-outs stand apart in the source and are kept apart here.

What was measured:
in vivo = conditions: female, Crl:CD(SD), rat, sc
Procedure: (§3) PCO371 was administered at a dose of 2, 6 or 18 mg kg^−1 orally to 7-week-old normal female rats (RccHan: WIST, JLA; three rats for each dose group), or at a dose of 2, 6 or 18 mg kg^−1 orally to 7-week-old female TPTX rats [Crl:CD(SD), Charles River Laboratories; three TPTX rats for each dose group] or at 30 mg kg^−1 orally or 3, 10 mg kg^−1 intravenously to 55-week-old OVX rats as described above. Blood samples were collected at 15 and 30 min, and 1, 2, 4, 8 and 24 h after administration. […] The concentrations of plasma PCO371 were determined by liquid chromatography–tandem mass spectrometry [LC-MS/MS (API-3200 (AB SCIEX), detection limit: 1 ng ml^−1).

OVX rats = assay: Repeated administration study in OVX rats; format: in vivo, rat; conditions: day 84, all treated rats
Procedure: OVX was carried out in 32-week-old female Crl:CD (SD) rats (Charles River Laboratories). Twelve weeks after surgery, lumbar vertebral BMD (L3–L5) was measured in vivo by dual-energy X-ray absorptiometry (DXA) using a DCS-600EX-IIIR bone densitometer (Hitachi Aloka Medical), and the rats were divided into five groups, each with a similar mean value of BMD and body weight. Sample sizes were determined based on previous experiments with hPTHs and a published study with ibandronate and eldecalcitriol in our laboratories[42] (n=7–10). Then, OVX rats were treated once daily intravenously (vehicle or PCO371 at 3 or 10 mg kg^−1) or orally (vehicle or PCO371 at 30 mg kg^−1) or subcutaneously [vehicle or hPTH(1–34) at 0.9 nmol kg^−1] for 12 weeks. Ten to twelve OVX rats were assigned to each dose group. Nine rats were assigned to the sham-operated control group and were treated with vehicle for PCO371. Ten per cent DMSO (Wako Pure Chemical Industries)/10% Kolliphor EL (Sigma-Aldrich) in 10% hydroxypropyl-β-cyclodextrin (HPCD; Nihon Shokuhin Kako)/0.752% glycine (Wako Pure Chemical Industries) buffer was used as vehicle for PCO371, and phosphate-citrate buffer (pH 6.0) was used as vehicle for hPTH(1–34). To label bone-forming surfaces, tetracycline ([…], Nippon Zenyaku Kogyo) was subcutaneously injected on Day 78 and calcein (8 mg kg^−1, Dōjindo Laboratories) was subcutaneously injected on day 83. Under isoflurane anaesthesia, jugular vein blood was collected immediately before and at 1, 2, 6, 10 and 24 h after administration on day 82 to measure plasma concentration of PCO371 or on day 84 to measure serum Ca levels (o-CPC method, Wako Pure Chemical Industries). Urine was collected for 24 h from metabolic cages on days 84–85 to measure urinary collagen type 1 cross-linked C-telopeptide (CTX) by using the RatLaps ELISA System (Immunodiagnostic Systems). Under isoflurane anaesthesia, blood was collected on day 85 from the abdominal aorta to measure serum osteocalcin level by using the Rat Osteocalcin ELISA System (GE Healthcare). The lumbar spine and bilateral femurs were excised after 12 weeks of treatment. The first lumbar vertebra (L1), 3rd to 5th lumbar vertebrae (L3–L5), the right femur, and the right tibia were preserved in 70% ethanol to measure bone histomorphometry and BMD (DCS-600EX; Hitachi Aloka Medical). Measurement of bone histomorphometry was performed by the Ito Bone Histomorphometry Institute (Niigata, Japan). The second lumbar vertebra (L2) was wrapped in saline-soaked gauze and stored at −80 °C until measurement. Ultimate compressive strength (N) of the L2 vertebra was measured by using a mechanical testing machine (TK-252C; Muromachi Kikai).

[1] = Pharmacokinetics in normal rats
Procedure: as §3

[2] = human; ref Calcifi Tissue Int 2010 87:485, J Bone Miner Res 2013 28:2232, J Pharmcol Exp Ther 2009 330:169; cited from earlier work
rat PTHR2 = target: T1, rat PTHR2 (Rattus norvegicus, UniProt P70555); assay: cAMP production assay in COS-7 cells expressing rat PTHR2; format: cell-based
T1 construct: expressed in transfected cells; host or cells: COS-7 (transient)
Procedure: (§1) COS-7 cells (ATCC) were seeded into a 96-well flat-bottomed plate (1.4 × 10^4 cells per 100 μl per well) and incubated overnight. The next day, the COS-7 cells were transfected by adding 10 μl of a mixture of hPTHR1, hPTHR2 or mutant hPTHR1 plasmid, rat PTHR1 or rat PTHR2 plasmid, or empty vector (0.1 μg per well), FuGENE HD Transfection Reagent (0.4 μl per well, Promega), and Opti-MEM I Reduced Serum Medium (10 μl per well, Life Technologies) to each well. […] The plate was placed in a 37 °C constant-temperature water bath for 20 min to allow the reaction to proceed. After incubation, the liquid in the wells was discarded, the wells were washed with the assay medium (100 μl per well), and the plate was frozen on dry ice. Next, 40 μl of 50 mmol l^−1 HCl was added to each well, and the plate was stored in a freezer set at ≤−20 °C. The cAMP concentrations were measured by using a cAMP EIA kit (GE Healthcare). EC50 values were determined from three independent experiments in duplicate by a non-linear regression Emax model (JMP ver.9.0.2, SAS Institute). The geometric mean of the EC50 values obtained in three experiments in duplicate was calculated using Microsoft Office Excel 2007. […]

hPTHR2 = target: T2, hPTHR2 (Homo sapiens, UniProt P49190); assay: cAMP production assay in COS-7 cells expressing hPTHR2; format: cell-based; conditions: COS-7 cells expressing human PTHR2
T2 construct: expressed in transfected cells; host or cells: COS-7 (transient)
Procedure: as §1

TPTX rats [3] = assay: Repeated administration study in TPTX rats, study 2 (add-on to alfacalcidol); format: in vivo, rat; conditions: alone at 75 ng kg^−1 once-daily oral, 4 weeks
Procedure: (§2) TPTX was carried out in 6-week-old female Crl:CD (SD) rats (Charles River Laboratories). Rats with serum Ca levels of <8.0 mg dl^−1 at 5 days after surgery were used in the following experiments. The rats were divided into four groups both in study 1 and 2, each with a similar mean value of serum Ca levels and body weight. Sample sizes were determined as described in the above single administration study. To evaluate the calcemic effects of PCO371 and hPTHs, we defined a target therapeutic range for serum Ca of 7.6–11.2 mg dl^−1, which corresponds to the low normal to normal range of serum Ca levels.
TPTX rats were orally treated once daily (vehicle; alfacalcidol (Chugai Pharma Manufacturing) at 38 or 75 ng kg^−1; or alfacalcidol at 38 ng kg^−1 plus PCO371 at 6 mg kg^−1) for 4 weeks. Five or six TPTX rats were assigned to each dose group. The vehicle for alfacalcidol was medium-chain triglyceride (Chugai Pharma Manufacturing). Under isoflurane anaesthesia, jugular vein blood was collected immediately before and at 6 and 10 h after administration to measure serum Ca levels on day 1 (the first dosing day), 8, 14, 22 and 28. Urine was collected for 24 h by using metabolic cages on days 28 and 29. Serum and urine Ca levels were measured in the same way as in the single-dosing study.

TPTX rats [4] = assay: Single administration study in TPTX rats; format: in vivo, rat; conditions: TPTX studies, 0.9 nmol/kg
Procedure: TPTX was carried out in 6-week-old female Crl:CD(SD) rats (Charles River Laboratories). Rats with serum Ca levels of <8.0 mg dl^−1 at 5 days after surgery were used for the experiment. The rats were divided into six groups, each with a similar mean value of serum Ca levels and body weight. TPTX rats were treated once orally (vehicle or PCO371 at 1.3, 6.5 or 33 mg kg^−1) or subcutaneously (vehicle or hPTH(1–84) (Chugai Pharmaceutical) at 9 nmol kg^−1). Six TPTX rats were assigned to each dose group. The sample size was determined based on previous experiments and a published study with hPTHs and LA-PTH in our laboratories[24] (n=5–6). Vehicle for PCO371 was the same as in the OVX rat study, and phosphate-citrate buffer (pH 6.0) was used as vehicle for hPTH(1–84). Under isoflurane anaesthesia, jugular vein blood was collected immediately before and at 1, 2, 6, 10 and 24 h after administrations to measure serum Ca (o-CPC method, Wako Pure Chemical Industries) and Pi levels (xanthine oxidase method, Wako Pure Chemical Industries).
In another experiment, the effects of a single treatment with PCO371 or hPTH(1–34) on serum Ca and Pi in TPTX rats (6-week-old) were evaluated at the dose of 3, 9.5 or 30 mg kg^−1 (PCO371, p.o.) or 9 nmol kg^−1 (hPTH(1–34), s.c.) according to the same method as that described above.

patients = test system: patients; parameters: method as in PMID 23649554; conditions: once-daily dosing; cited from earlier work
TPTX rats [5] = assay: Repeated administration study in TPTX rats, study 1; format: in vivo, rat
Procedure: as §2
TPTX rats were treated twice daily (at around 09:00 and 19:00 hours) orally (vehicle or PCO371 at 1, 3 or 9 mg kg^−1) or subcutaneously [hPTH(1–34) or vehicle at 9 nmol kg^−1] for 4 weeks. Four rats were assigned to sham control, and treated with vehicle for PCO371. Vehicles for PCO371 and hPTH(1–34) were the same as in the OVX rat study. Under isoflurane anaesthesia, jugular vein blood was collected immediately before and at 6 and 10 h (for PCO371) or at 1 and 10 h (for hPTH) after administrations to measure the serum Ca levels on days 1 (the first dosing day), 7, 14, 22 and 29. Urine was collected for 24 h by using metabolic cages on days 29–30, and Ca excretion was calculated from urine volume and Ca level. Under isoflurane anaesthesia, jugular vein blood was collected 10 h after administrations to measure serum 1,25(OH)2D3 levels on Day 29 by using a 1,25(OH)2D3 RIA kit (Fujirebio). Four or five TPTX rats were assigned to each dose group. Serum and urine Ca levels were measured in the same way as in the single-dosing study. In another experiment, TPTX rats were treated subcutaneously once daily with hPTH(1–84) at 9 nmol kg^−1, for 4 weeks. Serum Ca was measured immediately before and at 2, 6 and 10 h after administration on day 1 (the first dosing day), 7, 14, 21 and 28 using the same method as described above. Urine was collected for 24 h by using metabolic cages on days 28 and 29, and Ca excretion was calculated from urine volume and Ca level.

[6] = parameters: method as in earlier work; conditions: rat; ref Calcifi Tissue Int 2010 87:485, J Bone Miner Res 2013 28:2232, J Pharmcol Exp Ther 2009 330:169; cited from earlier work
[7] = Pharmacokinetics in TPTX rats; format: in vivo, rat
[8] = female, Crl:CD(SD), rat, plasma, sc, 3 nmol/kg

T1 sequence (P70555 25-546): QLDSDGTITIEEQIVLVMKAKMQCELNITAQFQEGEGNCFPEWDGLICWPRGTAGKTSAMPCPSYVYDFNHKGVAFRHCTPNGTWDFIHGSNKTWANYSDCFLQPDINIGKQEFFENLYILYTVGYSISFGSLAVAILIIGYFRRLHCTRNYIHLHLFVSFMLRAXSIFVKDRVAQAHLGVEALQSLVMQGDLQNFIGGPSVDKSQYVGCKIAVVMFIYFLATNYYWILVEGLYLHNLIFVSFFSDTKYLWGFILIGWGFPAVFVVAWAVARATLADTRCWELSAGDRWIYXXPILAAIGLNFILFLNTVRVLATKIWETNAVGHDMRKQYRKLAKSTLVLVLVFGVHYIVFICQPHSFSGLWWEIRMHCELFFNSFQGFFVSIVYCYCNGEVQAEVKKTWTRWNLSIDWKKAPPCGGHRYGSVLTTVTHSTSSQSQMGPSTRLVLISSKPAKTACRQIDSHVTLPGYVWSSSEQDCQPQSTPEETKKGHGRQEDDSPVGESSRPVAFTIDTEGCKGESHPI
T2 sequence (P49190 25-550): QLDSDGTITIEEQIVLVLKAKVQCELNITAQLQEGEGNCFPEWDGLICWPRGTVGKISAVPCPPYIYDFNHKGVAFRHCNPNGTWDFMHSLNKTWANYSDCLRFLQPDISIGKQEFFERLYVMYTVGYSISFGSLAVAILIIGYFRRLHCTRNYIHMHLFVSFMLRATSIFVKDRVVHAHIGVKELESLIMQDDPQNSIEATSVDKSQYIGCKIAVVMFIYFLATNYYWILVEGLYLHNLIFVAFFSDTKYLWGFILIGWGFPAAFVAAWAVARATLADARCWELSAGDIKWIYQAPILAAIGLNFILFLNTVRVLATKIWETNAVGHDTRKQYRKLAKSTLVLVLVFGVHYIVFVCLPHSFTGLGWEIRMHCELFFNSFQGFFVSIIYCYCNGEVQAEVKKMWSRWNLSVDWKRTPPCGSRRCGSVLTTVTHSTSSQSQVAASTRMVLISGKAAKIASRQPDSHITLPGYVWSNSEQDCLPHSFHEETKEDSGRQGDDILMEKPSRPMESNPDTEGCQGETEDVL

## CC[C@H](C)[C@H](NC(=O)[C@H](CCC(=O)O)NC(=O)[C@H](CO)NC(=O)[C@@H](NC(=O)[C@@H](N)CO)C(C)C)C(=O)N[C@@H](CCC(N)=O)C(=O)N[C@@H](CC(C)C)C(=O)N[C@@H](CCSC)C(=O)N[C@@H](Cc1cnc[nH]1)C(=O)N[C@@H](CC(N)=O)C(=O)N[C@@H](CC(C)C)C(=O)NCC(=O)N[C@@H](CCCCN)C(=O)N[C@@H](Cc1cnc[nH]1)C(=O)N[C@@H](CC(C)C)C(=O)N[C@@H](CC(N)=O)C(=O)N[C@@H](CO)C(=O)N[C@@H](CCSC)C(=O)N[C@@H](CCC(=O)O)C(=O)N[C@@H](CCCN=C(N)N)C(=O)N[C@H](C(=O)N[C@@H](CCC(=O)O)C(=O)N[C@@H](Cc1c[nH]c2ccccc12)C(=O)N[C@@H](CC(C)C)C(=O)N[C@@H](CCCN=C(N)N)C(=O)N[C@@H](CCCCN)C(=O)N[C@@H](CCCCN)C(=O)N[C@@H](CC(C)C)C(=O)N[C@@H](CCC(N)=O)C(=O)N[C@@H](CC(=O)O)C(=O)N[C@H](C(=O)N[C@@H](Cc1cnc[nH]1)C(=O)N[C@@H](CC(N)=O)C(=O)N[C@@H](Cc1ccccc1)C(=O)O)C(C)C)C(C)C [hPTH(1–34), reference compound]
In vivo
  half-life: 15 min
In vivo; 3 nmol/kg
  half-life: 18 ± 6 min
OVX rats
  serum Ca: within the normal range
[1]; [8]
  AUC(0-inf): 0.99 ± 0.17 ng·h/mL
  Cmax: 2.42 ± 0.53 ng/mL
  Tmax: 6 ± 6 min
  bioavailability: 22%
[1]; rat (Table 1)
  Tmax: 5 min
[1]; rat, plasma, sc, 0.9 nmol/kg
  Cmax: ~0.125 ng/mL
[2]
  Tmax: 30 min

## TIP39: tuberoinfundibular peptide of 39 residues, the cognate ligand for PTHR2 [reference compound]
Rat PTHR2
  cAMP production: showed an increase in cAMP production
hPTHR2
  cAMP production: showed an increase in cAMP production

## C=C1/C(=C\C=C2/CCC[C@]3(C)[C@@H]([C@H](C)CCCC(C)C)CC[C@@H]23)C[C@@H](O)C[C@@H]1O [Alfacalcidol, 1α-hydroxycholecalciferol, reference compound]
TPTX rats [3]
  serum Ca: normalized the serum Ca to within or above the target therapeutic range
  urinary Ca excretion: considerable urinary Ca excretion

## hPTH(1–84): the full-length, native PTH molecule called human PTH(1–84) [reference compound]
TPTX rats [4]
  serum Ca levels: failed to induce any changes
patients
  duration of observed effects: up to 24 h
  patients with hypercalcemia at peak times: 71%
  time of peak Ca levels after administration: around 7 h
TPTX rats [5]; after 4-week treatment, s.c. once daily 9 nmol kg^−1
  urinary Ca excretion: No increase
TPTX rats [5]; subcutaneous 9 nmol kg^−1 for 4 weeks, target therapeutic range 7.6–11.2 mg dl^−1
  serum Ca: transiently increased serum Ca to within the target therapeutic range
[6]
  Tmax: 5 to 15 min
[7]; s.c. 30 nmol kg-1
  AUC: 1.80 ± 0.78 ng·h/mL
  Cmax: 3.42 ± 1.10 ng/mL
  T1/2: 12 ± 6 min
  Tmax: 12 ± 12 min
[7]; s.c. 100 nmol kg-1
  AUC: 8.55 ± 4.63 ng·h/mL
  Cmax: 8.67 ± 1.97 ng/mL
  T1/2: 102 ± 132 min
  Tmax: 6 ± 6 min
[7]; s.c. 300 nmol kg-1
  AUC: 21.0 ± 5.58 ng·h/mL
  Cmax: 39.7 ± 10.3 ng/mL
  T1/2: 66 ± 54 min
  Tmax: 6 ± 6 min
[2]
  Tmax at the first peak: 15 min
  Tmax at the second peak: 120 min
